# Measured values reported in patent US20150258192A1, “COMPOSITIONS AND METHODS FOR PREVENTING OR TREATING CHRONIC LUNG ALLOGRAFT DYSFUNCTION (CLAD) AND IDIOPATHIC PULMONARY FIBROSIS (IPF)” (priority 2014, published 2015).
# No end group written: not given here.
# How the values were obtained:
# Assay in all cases: Kinase Profiling Assay
# Assay type in all cases: biochemical
# Conditions in all cases: peptide 100 μM
# MSK2(h) = molecular target: T1, MSK2(h) (Homo sapiens, UniProt O75676)
# T1 construct: purchased Millipore
# How it was run: (§1)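 Measured twice per kinase, activity in presence of MK2 inhibitory peptide was calculated against a 100% activity control after radiometric phosphorylation of a cationic substrate, anionic filter capture and scintillation counting; one of 266 human kinases profiled for specificity.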
# SGK2(h) = molecular target: T2, SGK2(h) (Homo sapiens, UniProt Q9HBY8)
# T2 construct: purchased Millipore
# T2 sequence (Q9HBY8 1-367): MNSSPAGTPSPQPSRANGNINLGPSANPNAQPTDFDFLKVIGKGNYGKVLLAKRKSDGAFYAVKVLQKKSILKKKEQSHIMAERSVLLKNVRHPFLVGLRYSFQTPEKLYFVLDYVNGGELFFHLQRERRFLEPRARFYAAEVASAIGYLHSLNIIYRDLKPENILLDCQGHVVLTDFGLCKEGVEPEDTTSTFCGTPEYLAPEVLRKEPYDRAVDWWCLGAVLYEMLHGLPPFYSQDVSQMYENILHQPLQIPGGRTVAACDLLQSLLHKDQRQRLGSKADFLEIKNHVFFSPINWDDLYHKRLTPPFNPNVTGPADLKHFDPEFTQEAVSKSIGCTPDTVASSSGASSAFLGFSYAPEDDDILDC
# How it was run: as §1
# EphB4(h) = molecular target: T3, EphB4(h) (Homo sapiens, UniProt P54760)
# T3 sequence (P54760 16-987): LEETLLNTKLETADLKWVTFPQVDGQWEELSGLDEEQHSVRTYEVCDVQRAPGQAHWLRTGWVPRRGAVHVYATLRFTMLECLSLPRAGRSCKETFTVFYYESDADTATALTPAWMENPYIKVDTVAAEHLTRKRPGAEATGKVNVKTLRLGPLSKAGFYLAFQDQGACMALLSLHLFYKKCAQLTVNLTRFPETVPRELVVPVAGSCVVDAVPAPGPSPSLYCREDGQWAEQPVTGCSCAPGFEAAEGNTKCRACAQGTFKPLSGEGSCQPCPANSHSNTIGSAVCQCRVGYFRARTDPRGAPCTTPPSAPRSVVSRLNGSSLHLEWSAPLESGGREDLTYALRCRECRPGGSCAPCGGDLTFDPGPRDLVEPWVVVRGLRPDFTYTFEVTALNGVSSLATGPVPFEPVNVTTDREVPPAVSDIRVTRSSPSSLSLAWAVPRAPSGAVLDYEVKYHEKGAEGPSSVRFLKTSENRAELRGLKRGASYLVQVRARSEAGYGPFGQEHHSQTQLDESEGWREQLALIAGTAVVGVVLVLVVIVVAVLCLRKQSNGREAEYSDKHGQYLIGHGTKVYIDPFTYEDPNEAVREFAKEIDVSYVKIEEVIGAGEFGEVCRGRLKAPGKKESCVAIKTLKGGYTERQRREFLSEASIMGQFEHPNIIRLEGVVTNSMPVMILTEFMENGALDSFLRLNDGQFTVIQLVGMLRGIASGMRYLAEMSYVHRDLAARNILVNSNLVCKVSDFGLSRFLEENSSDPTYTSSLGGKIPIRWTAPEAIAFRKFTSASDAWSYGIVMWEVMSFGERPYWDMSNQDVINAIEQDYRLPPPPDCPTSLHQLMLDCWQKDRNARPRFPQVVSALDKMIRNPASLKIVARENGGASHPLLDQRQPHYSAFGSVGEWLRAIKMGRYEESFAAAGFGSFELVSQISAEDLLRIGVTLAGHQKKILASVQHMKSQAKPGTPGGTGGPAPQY
# How it was run: as §1
# ErbB4(h) = ErbB4(h) (Homo sapiens, UniProt Q15303)
# How it was run: as §1
# VRK2(h) = VRK2(h) (Homo sapiens, UniProt Q86Y07)
# How it was run: as §1
# MLCK(h) = molecular target: T4, MLCK(h) (Homo sapiens, UniProt Q9H1R3)
# T4 construct: purchased Millipore
# How it was run: as §1
# Fgr(h) = Fgr(h) (Homo sapiens, UniProt P09769)
# How it was run: as §1
# SRPK1(h) = molecular target: T5, SRPK1(h) (Homo sapiens, UniProt Q96SB4)
# T5 construct: purchased Millipore
# How it was run: as §1
# DRAK1(h) = molecular target: T6, DRAK1(h) (Homo sapiens, UniProt Q9UEE5)
# T6 sequence (Q9UEE5 1-414): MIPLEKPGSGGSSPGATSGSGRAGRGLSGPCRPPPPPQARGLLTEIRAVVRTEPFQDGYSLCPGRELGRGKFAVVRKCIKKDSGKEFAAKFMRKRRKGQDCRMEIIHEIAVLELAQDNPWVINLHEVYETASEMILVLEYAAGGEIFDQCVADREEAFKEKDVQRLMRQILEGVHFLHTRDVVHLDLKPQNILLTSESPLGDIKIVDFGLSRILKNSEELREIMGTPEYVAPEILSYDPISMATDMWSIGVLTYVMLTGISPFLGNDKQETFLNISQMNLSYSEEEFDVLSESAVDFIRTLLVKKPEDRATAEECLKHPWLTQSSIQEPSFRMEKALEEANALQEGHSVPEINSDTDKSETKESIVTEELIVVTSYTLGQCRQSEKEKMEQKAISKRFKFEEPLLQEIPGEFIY
# How it was run: as §1
# Snk(h) = molecular target: T7, Snk(h) (Homo sapiens, UniProt Q9NYY3)
# T7 construct: purchased Millipore
# How it was run: as §1
# T5 sequence (Q96SB4 whole entry): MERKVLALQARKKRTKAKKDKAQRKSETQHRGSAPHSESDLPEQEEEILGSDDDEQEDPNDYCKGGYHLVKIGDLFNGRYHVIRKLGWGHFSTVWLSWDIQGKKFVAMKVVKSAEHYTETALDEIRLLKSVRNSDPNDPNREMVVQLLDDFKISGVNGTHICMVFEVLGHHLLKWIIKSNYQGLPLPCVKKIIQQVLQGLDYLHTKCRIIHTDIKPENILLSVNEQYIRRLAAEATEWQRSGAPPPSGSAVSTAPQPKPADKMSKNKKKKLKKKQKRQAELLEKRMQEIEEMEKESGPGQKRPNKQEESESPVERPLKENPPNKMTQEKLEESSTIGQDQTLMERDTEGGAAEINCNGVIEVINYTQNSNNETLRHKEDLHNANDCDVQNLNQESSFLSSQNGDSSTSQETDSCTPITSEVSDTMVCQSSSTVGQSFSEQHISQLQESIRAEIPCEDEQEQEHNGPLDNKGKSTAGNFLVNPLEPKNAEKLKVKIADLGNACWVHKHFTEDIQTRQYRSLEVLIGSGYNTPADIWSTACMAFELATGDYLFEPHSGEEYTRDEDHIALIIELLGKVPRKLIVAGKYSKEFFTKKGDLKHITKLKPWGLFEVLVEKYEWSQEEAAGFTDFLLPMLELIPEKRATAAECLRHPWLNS
# T7 sequence (Q9NYY3 whole entry): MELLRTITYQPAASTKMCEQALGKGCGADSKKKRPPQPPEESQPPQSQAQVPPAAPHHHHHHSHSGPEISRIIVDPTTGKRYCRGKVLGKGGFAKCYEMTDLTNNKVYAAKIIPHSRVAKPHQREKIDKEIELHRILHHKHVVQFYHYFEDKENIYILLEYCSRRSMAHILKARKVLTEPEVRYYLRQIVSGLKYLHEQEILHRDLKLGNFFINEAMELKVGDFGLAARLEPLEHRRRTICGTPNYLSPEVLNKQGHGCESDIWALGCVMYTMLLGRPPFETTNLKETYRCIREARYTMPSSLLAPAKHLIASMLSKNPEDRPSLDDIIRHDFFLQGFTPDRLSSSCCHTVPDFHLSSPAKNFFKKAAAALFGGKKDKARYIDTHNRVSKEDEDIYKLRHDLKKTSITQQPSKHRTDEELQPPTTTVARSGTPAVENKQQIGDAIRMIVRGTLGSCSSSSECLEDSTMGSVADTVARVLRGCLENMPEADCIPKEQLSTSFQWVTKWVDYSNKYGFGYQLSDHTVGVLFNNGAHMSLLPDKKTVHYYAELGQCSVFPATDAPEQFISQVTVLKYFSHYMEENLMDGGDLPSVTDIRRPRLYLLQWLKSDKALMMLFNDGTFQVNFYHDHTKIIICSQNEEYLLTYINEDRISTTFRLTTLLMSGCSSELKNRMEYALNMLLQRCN
# T1 sequence (O75676 whole entry): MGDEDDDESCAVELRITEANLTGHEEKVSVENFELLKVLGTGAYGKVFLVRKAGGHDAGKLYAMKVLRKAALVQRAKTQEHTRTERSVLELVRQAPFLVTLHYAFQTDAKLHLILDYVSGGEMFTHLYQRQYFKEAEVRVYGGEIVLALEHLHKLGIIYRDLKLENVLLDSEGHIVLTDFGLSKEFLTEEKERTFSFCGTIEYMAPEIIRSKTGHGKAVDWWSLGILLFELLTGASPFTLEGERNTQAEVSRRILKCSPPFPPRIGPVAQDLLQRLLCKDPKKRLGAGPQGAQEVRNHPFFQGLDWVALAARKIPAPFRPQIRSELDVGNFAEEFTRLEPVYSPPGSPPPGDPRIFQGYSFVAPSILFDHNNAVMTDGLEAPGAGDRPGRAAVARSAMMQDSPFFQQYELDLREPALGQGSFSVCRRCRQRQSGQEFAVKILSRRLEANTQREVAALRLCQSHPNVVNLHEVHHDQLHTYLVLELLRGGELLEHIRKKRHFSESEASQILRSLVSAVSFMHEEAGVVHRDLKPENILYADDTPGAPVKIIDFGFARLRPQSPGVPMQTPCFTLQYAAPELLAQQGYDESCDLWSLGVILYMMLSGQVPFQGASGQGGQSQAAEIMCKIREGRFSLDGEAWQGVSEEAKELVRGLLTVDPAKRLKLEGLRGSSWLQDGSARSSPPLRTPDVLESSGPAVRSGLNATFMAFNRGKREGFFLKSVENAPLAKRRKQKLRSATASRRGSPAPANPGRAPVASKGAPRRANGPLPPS
# T4 sequence (Q9H1R3 2-596 limits assumed): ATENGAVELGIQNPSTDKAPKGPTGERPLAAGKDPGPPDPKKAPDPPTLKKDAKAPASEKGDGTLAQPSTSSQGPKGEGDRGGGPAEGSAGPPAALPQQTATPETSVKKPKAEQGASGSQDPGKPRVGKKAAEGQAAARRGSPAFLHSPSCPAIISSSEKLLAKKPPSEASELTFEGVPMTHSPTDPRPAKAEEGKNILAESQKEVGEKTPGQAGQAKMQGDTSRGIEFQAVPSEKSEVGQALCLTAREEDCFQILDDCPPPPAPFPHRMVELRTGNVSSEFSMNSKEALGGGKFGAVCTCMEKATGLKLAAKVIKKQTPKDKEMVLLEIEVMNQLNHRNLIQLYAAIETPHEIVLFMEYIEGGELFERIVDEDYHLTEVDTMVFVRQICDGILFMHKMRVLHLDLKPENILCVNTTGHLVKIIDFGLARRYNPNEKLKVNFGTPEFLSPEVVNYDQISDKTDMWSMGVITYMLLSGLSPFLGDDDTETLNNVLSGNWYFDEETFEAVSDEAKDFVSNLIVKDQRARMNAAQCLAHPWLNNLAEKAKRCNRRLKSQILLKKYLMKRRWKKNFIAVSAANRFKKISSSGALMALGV
# Sequence of VRK2(h) (Q86Y07 whole entry): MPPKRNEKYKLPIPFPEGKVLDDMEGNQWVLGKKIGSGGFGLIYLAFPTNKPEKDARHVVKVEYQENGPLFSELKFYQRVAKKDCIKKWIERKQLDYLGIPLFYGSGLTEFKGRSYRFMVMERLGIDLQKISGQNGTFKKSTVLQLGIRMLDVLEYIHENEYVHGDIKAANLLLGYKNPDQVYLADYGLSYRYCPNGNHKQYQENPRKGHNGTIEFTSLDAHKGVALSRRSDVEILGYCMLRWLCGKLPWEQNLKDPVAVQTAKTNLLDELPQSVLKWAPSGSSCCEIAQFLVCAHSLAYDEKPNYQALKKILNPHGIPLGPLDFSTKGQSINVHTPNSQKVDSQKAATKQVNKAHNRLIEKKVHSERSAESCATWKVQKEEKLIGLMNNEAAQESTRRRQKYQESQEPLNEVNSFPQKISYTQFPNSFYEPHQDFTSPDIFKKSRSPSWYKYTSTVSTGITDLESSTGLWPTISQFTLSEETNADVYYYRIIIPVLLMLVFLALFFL
# Sequence of ErbB4(h) (Q15303 26-1308): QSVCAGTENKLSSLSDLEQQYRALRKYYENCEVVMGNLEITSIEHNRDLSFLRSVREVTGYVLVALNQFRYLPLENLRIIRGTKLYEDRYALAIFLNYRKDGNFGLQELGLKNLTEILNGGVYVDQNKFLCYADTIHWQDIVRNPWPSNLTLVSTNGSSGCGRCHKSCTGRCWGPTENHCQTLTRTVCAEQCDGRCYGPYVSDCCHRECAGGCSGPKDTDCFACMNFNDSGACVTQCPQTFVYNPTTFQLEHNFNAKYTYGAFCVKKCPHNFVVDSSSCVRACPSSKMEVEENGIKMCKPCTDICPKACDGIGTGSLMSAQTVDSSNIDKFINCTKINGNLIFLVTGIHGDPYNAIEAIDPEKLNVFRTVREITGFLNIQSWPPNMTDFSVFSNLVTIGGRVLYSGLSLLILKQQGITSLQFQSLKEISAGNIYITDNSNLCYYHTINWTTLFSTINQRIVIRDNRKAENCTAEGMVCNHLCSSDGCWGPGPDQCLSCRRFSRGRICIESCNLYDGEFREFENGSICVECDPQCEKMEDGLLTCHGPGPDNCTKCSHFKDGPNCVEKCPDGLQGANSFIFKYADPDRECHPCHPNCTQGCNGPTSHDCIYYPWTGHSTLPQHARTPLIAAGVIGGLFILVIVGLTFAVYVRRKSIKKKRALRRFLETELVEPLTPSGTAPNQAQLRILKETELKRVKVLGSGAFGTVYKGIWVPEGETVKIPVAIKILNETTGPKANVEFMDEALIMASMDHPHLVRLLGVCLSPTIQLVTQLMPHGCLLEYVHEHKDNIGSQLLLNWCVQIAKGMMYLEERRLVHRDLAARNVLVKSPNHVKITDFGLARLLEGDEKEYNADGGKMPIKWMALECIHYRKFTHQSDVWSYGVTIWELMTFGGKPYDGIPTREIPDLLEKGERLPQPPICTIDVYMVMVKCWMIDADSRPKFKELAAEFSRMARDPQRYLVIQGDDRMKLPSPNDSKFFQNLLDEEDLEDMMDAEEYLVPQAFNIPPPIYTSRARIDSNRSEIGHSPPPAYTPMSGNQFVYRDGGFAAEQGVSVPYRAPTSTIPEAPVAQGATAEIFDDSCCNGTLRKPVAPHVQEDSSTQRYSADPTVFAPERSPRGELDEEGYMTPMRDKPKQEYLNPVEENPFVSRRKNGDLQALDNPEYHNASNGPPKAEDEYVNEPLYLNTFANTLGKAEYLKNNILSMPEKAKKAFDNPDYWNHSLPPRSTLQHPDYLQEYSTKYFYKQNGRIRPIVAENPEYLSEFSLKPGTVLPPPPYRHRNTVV
Sequence,% activity (MSK2(h)) [%],% activity (SGK2(h)) [%],% activity (EphB4(h)) [%],% activity (ErbB4(h)) [%],% activity (VRK2(h)) [%],% activity (MLCK(h)) [%],% activity (Fgr(h)) [%],% activity (SRPK1(h)) [%],% activity (DRAK1(h)) [%],% activity (Snk(h)) [%]
FAKLAARLYRKALARQLGVAA [MMI-0300],56,56,44,40,161,2,60,90,14,
HRRIKAWLKKIKALARQLGVAA (Mammal) [MMI-0500],14,-1,38,2,169,0,,80,8,122
KAFAKLAARLYRKALARQLGVAA [MMI-0400],52,98,28,0,185,1,47,96,14,131
YARAAARQARAKALARQLGVAA [MMI-0100],,,62,73,,85,,69,47,94
YARAAARQARAKALNRQLGVA (Mammal) [MMI-0200],88,,131,82,,,71,93,34,
